Measurements as given in publication PMC11574045, “A cofactor-induced repressive type of transcription factor condensation can be induced by synthetic peptides to suppress tumorigenesis” (The EMBO Journal, 2024).
Residue numbers refer to the chain shown, from its start.

B1: FOSL2 (protein, UniProt P15408 1-326, looked up)
Fos-related antigen 2: MYQDYPGNFDTSSRGSSGSPAHAESYSSGGGGQQKFRVDMPGSGSAFIPTINAITTSQDLQWMVQPTVITSMSNPYPRSHPYSPLPGLASVPGHMALPRPGVIKTIGTTVGRRRRDEQLSPEEEEKRRIRRERNKLAAAKCRNRRRELTEKLQAETEELEEEKSGLQKEIAELQKEKEKLEFMLVAHGPVCKISPEERRSPPAPGLQPMRSGGGSVGAVVVKQEPLEEDSPSSSSAGLDKAQRSVIKPISIAGGFYGEEPLHTPIVVTSTPAVTPGTSNLVFTYPSVLEQESPASPSESCSKAHRRSSSSGDQSSDSLNSPTLLAL
B2: FOXA1 (protein, UniProt P55317 1-472, looked up)
Hepatocyte nuclear factor …: MLGTVKMEGHETSDWNSYYADTQEAYSSVPVSNMNSGLGSMNSMNTYMTMNTMTTSGNMTPASFNMSYANPGLGAGLSPGAVAGMPGGSAGAMNSMTAAGVTAMGTALSPSGMGAMGAQQAASMNGLGPYAAAMNPCMSPMAYAPSNLGRSRAGGGGDAKTFKRSYPHAKPPYSYISLITMAIQQAPSKMLTLSEIYQWIMDLFPYYRQNQQRWQNSIRHSLSFNDCFVKVARSPDKPGKGSYWTLHPDSGNMFENGCYLRRQKRFKCEKQPGAGGGGGSGSGGSGAKGGPESRKDPSGASNPSADSPLHRGVHGKTGQLEGAPAPGPAASPQTLDHSGATATGGASELKTPASSTAPPISSGPGALASVPASHPAHGLAPHESQLHLKGDPHYSFNHPFSINNLMSSSEQQHKLDFKAYEQALQYSPYGSTLPASLPLGSASVTTRSPIEPSALEPAYYQGVYSRPVLNTS
B3: FOXA3 (protein, UniProt P55318 1-350, looked up)
Hepatocyte nuclear factor …: MLGSVKMEAHDLAEWSYYPEAGEVYSPVTPVPTMAPLNSYMTLNPLSSPYPPGGLPASPLPSGPLAPPAPAAPLGPTFPGLGVSGGSSSSGYGAPGPGLVHGKEMPKGYRRPLAHAKPPYSYISLITMAIQQAPGKMLTLSEIYQWIMDLFPYYRENQQRWQNSIRHSLSFNDCFVKVARSPDKPGKGSYWALHPSSGNMFENGCYLRRQKRFKLEEKVKKGGSGAATTTRNGTGSAASTTTPAATVTSPPQPPPPAPEPEAQGGEDVGALDCGSPASSTPYFTGLELPGELKLDAPYNFNHPFSINNLMSEQTPAPPKLDVGFGGYGAEGGEPGVYYQGLYSRSLLNAS
B4: FOXB2 (protein, UniProt Q5VYV0 1-432, looked up)
Forkhead box protein B2: MPRPGKSSYSDQKPPYSYISLTAMAIQHSAEKMLPLSDIYKFIMERFPYYREHTQRWQNSLRHNLSFNDCFIKIPRRPDQPGKGSFWALHPDCGDMFENGSFLRRRKRFKVLRADHTHLHAGSTKSAPGAGPGGHLHPHHHHHPHHHHHHHAAAHHHHHHHPPQPPPPPPPPPPHMVHYFHQQPPTAPQPPPHLPSQPPQQPPQQSQPQQPSHPGKMQEAAAVAAAAAAAAAAAVGSVGRLSQFPPYGLGSAAAAAAAAAASTSGFKHPFAIENIIGRDYKGVLQAGGLPLASVMHHLGYPVPGQLGNVVSSVWPHVGVMDSVAAAAAAAAAAGVPVGPEYGAFGVPVKSLCHSASQSLPAMPVPIKPTPALPPVSALQPGLTVPAASQQPPAPSTVCSAAAASPVASLLEPTAPTSAESKGGSLHSVLVHS
B5: FOXD4L1 (protein, UniProt Q9NU39 1-408, looked up)
Forkhead box protein D4-like 1: MNLPRAERPRSTPQRSLRDSDGEDGKIDVLGEEEDEDEVEDEEEEASQKFLEQSLQPGLQVARWGGVALPREHIEGGGPSDPSEFGTEFRAPPRSAAASEDARQPAKPPYSYIALITMAILQSPHKRLTLSGICAFISGRFPYYRRKFPAWQNSIRHNLSLNDCFVKIPREPGHPGKGTYWSLDPASQDMFDNGSFLRRRKRFKRHQLTPGAHLPHPFPLPAAHAALHNPRPGPLLGAPALPQPVPGAYPNTAPGRRPYALLHPHPPRYLLLSAPAYAGAPKKAEGADLATPGTLPVLQPSLGPQPWEEGKGLASPPGGGCISFSIESIMQGVRGAGTGAAQSLSPTAWSYCPLLQRPSSLSDNFAATAAASGGGLRQRLRSHQGRGAGRAPVGRVGAAAVSGGGRGL
B6: FOXD4L4 (protein, UniProt Q8WXT5 1-416, looked up)
Forkhead box protein D4-like 4: MNLPRAERPRSTPQRSLRDSDGEDGKIDVLGEEEDEDEVEDEEEEARQQFLEQSLQPGLQVARWGGVALPREHIEGGGGPSDPSEFGTKFRAPPRSAAASEDARQPAKPPYSYIALITMAILQNPHKRLTLSGICAFISGRFPYYRRKFPAWQNSIRHNLSLNDCFVKIPREPGHPGKGNYWSLDPASQDMFDNGSFLRRRKRFKRHQLTPGAHLPHPFPLPAAHAALHNPHPGPLLGAPAPPQPVPGAYPNTAPGRRPYALLHPHPLRYLLLSARVYAGAPKKAEGADLATPAPFPCCSPHLVLSLGRRARVWRRHREADASLSALRVLCKGSGERVQGLRRVCPRPRGATATCSSDHQACCIPKPLPLCCKCPPPLLLGQFCSNSSSIRRTAPTAALPPRARCWAGTCRPRRRC
B7: FOXD4L5 (protein, UniProt Q5VV16 1-416, looked up)
Forkhead box protein D4-like 5: B6 Forkhead box protein D4-like 4 with R258C, R276P
B8: FOXE3 (protein, UniProt Q13461 1-319, looked up)
Forkhead box protein E3: MAGRSDMDPPAAFSGFPALPAVAPSGPPPSPLAGAEPGREPEEAAAGRGEAAPTPAPGPGRRRRRPLQRGKPPYSYIALIAMALAHAPGRRLTLAAIYRFITERFAFYRDSPRKWQNSIRHNLTLNDCFVKVPREPGNPGKGNYWTLDPAAADMFDNGSFLRRRKRFKRAELPAHAAAAPGPPLPFPYAPYAPAPGPALLVPPPSAGPGPSPPARLFSVDSLVNLQPELAGLGAPEPPCCAAPDAAAAAFPPCAAAASPPLYSQVPDRLVLPATRPGPGPLPAEPLLALAGPAAALGPLSPGEAYLRQPGFASGLERYL
B9: FOXF2 (protein, UniProt O54743 1-446, looked up)
Forkhead box protein F2: MSTEGGPPPPPPRPPPAPLRRACSPAPGALQAALMSPPPAATLESTSSSSSSSSASCASSSSNSVSASAGACKSAASSGGAGAGSGGTKKATSGLRRPEKPPYSYIALIVMAIQSSPSKRLTLSEIYQFLQARFPFFRGAYQGWKNSVRHNLSLNECFIKLPKGLGRPGKGHYWTIDPASEFMFEEGSFRRRPRGFRRKCQALKPMYHRVVSGLGFGASLLPQGFDFQAPPSAPLGCHGQGGYGGLDMMPAGYDTGAGAPGHAHPHHLHHHHVPHMSPNPGSTYMASCPVPAGPAGVGAAAGGGGGGGDYGPDSSSSPVPSSPAMASAIECHSPYTSPAAHWSSPGASPYLKQPPALTPSSNPAASAGLHPSMSSYSLEQSYLHQNAREDLSVGLPRYQHHSTPVCDRKDFVLNFNGISSFHPSASGSYYHHHHQSVCQDIKPCVM
B10: FOXI1 (protein, UniProt Q12951 1-378, looked up)
Forkhead box protein I1: MSSFDLPAPSPPRCSPQFPSIGQEPPEMNLYYENFFHPQGVPSPQRPSFEGGGEYGATPNPYLWFNGPTMTPPPYLPGPNASPFLPQAYGVQRPLLPSVSGLGGSDLGWLPIPSQEELMKLVRPPYSYSALIAMAIHGAPDKRLTLSQIYQYVADNFPFYNKSKAGWQNSIRHNLSLNDCFKKVPRDEDDPGKGNYWTLDPNCEKMFDNGNFRRKRKRKSDVSSSTASLALEKTESSLPVDSPKTTEPQDILDGASPGGTTSSPEKRPSPPPSGAPCLNSFLSSMTAYVSGGSPTSHPLVTPGLSPEPSDKTGQNSLTFNSFSPLTNLSNHSGGGDWANPMPTNMLSYGGSVLSQFSPHFYNSVNTSGVLYPREGTEV
B11: AIOLOS (protein, UniProt Q9UKT9 1-509, looked up)
Zinc finger protein Aiolos: MEDIQTNAELKSTQEQSVPAESAAVLNDYSLTKSHEMENVDSGEGPANEDEDIGDDSMKVKDEYSERDENVLKSEPMGNAEEPEIPYSYSREYNEYENIKLERHVVSFDSSRPTSGKMNCDVCGLSCISFNVLMVHKRSHTGERPFQCNQCGASFTQKGNLLRHIKLHTGEKPFKCHLCNYACQRRDALTGHLRTHSVEKPYKCEFCGRSYKQRSSLEEHKERCRTFLQSTDPGDTASAEARHIKAEMGSERALVLDRLASNVAKRKSSMPQKFIGEKRHCFDVNYNSSYMYEKESELIQTRMMDQAINNAISYLGAEALRPLVQTPPAPTSEMVPVISSMYPIALTRAEMSNGAPQELEKKSIHLPEKSVPSERGLSPNNSGHDSTDTDSNHEERQNHIYQQNHMVLSRARNGMPLLKEVPRSYELLKPPPICPRDSVKVINKEGEVMDVYRCDHCRVLFLDYVMFTIHMGCHGFRDPFECNMCGYRSHDRYEFSSHIARGEHRALLK
B12: FOXI2 (protein, UniProt Q6ZQN5 1-318, looked up)
Forkhead box protein I2: MATYCDDLGPSSAPPGQAQATAHPPGYEPGDLGAVGGGPLLWVNAPALSPKSYASGPGPAPPYAAPSYGAPGPLLGAPGGLAGADLAWLSLSGQQELLRLVRPPYSYSALIAMAIQSAPLRKLTLSQIYQYVAGNFPFYKRSKAGWQNSIRHNLSLNDCFKKVPRDEDDPGKGNYWTLDPNCEKMFDNGNFRRKRKRRAEASAAVRSGARSVGGAEAPALEPPSAACLDLQASPSPSAPEAATCFSGFASAMSALAGGLGTFPGGLAGDFSFGRRPPTVATHAPQTLNPSPGFAPGHQTAAAGFRLSHLLYSREGTEV
B13: FOXM1 (protein, UniProt O08696 1-760, looked up)
Forkhead box protein M1: MRTSPRRPLILKRRRLPLPVQNAPSETSEEEAKRSPAQPEPAPAQASQEVAESSSCKFPAGIKIINHPTTPNTQVVAIPSNADIQSIITALTAKGKESGTSGPNRFILISSGGPSSHPSQPQAHSSRDSKRAEVITETLGPKPAAKGVPVPKPPGAPPRQRQESYAGGEAAGCTLDNSLTNIQWLGKMSSDGLGPCSVKQELEEKENCHLEQNRVKVEEPSGVSTSWQDSVSERPPYSYMAMIQFAINSTERKRMTLKDIYTWIEDHFPYFKHIAKPGWKNSIRHNLSLHDMFVRETSANGKVSFWTIHPSANRHLTLDQVFKPLEPGSPQSPEHLESQQKRPNPELHRNVTIKTEIPLGARRKMKPLLPRVSSYLEPIQFPVNQSLVLQPSVKVPFRLAASLMSSELARHSKRVRIAPKVLLSSEGIAPLPATEPPKEEKPLLGGEGLLPLLPIQSIKEEEMQPEEDIAHLERPIKVESPPLEEWPSPCASLKEELSNSWEDSSCSPTPKPKKSYCGLKSPTRCVSEMLVTKRREKREVSRSRRKQHLQPPCLDEPDLFFPEDSSTFRPAVELLAESSEPAPHLSCPQEEGGPFKTPIKETLPVSSTPSKSVLSRDPESWRLTPPAKVGGLDFSPVRTPQGAFGLLPDSLGLMELNTTPLKSGPLFDSPRELLNSEPFDLASDPFGSPPPPHVEGPKPGSPELQIPSLSANRSLTEGLVLDTMNDSLSKILLDISFPGLEEDPLGPDNINWSQFIPELR

System: HEK293FT cells transfected with TF library
Experiment: Screening of TF condensates based on fluorescent puncta
Type: cell-based
Settings: Figure 1B numerical data; TF library screen, one value per transcriptional factor
Procedure, shortened: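 Each TF construct was introduced into HEK293FT cells using PEI at 4.8 μg/ml; glucose deprivation versus normal medium lasted 12 h. Automated confocal-style imaging of tagged TF staining, 50 fields per well, gave the puncta data.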

Going from B1 to B2, the “Z score of condensed fraction” value rises from -0.8108 to -0.3489.

Going from B3 to B4, the “Z score of condensed fraction” value falls from 0.4813 to -0.2645.

Compared with B5, B6 is higher in “Z score of condensed fraction” value: -0.9826 for the first, 0.1205 for the second.

Compared with B7, B8 is lower in “Z score of condensed fraction” value: -0.7466 for the first, -0.8488 for the second.

Going from B9 to B10, the “Z score of condensed fraction” value falls from 0.2019 to -1.1314.

Compared with B11, B12 is lower in “Z score of condensed fraction” value: 0.5203 for the first, -0.5391 for the second.

For B13, the “Z score of condensed fraction” value was 2.036.
